According to article PMC11838012, “TRAM-LAG1-CLN8 family proteins are acyltransferases regulating phospholipid composition” (Science Advances, 2025):

Tests used:
Assay in all cases: LC-MS/MS initial-rate acyltransferase assay
[1] = biological target: T1, TLCD1 (Homo sapiens, UniProt Q96CP7); assay type: biochemical; settings: 100 uM oleoyl-CoA; pH 7.4, 30 C, 0.05% LMNG; shares the LPE site
T1 construct: full length, C-terminal FLAG and Strep tags kept; expressed in Flp-In T-REx 293 cells; purified in LMNG; monomer in micelles
T1 sequence (Q96CP7 36-247): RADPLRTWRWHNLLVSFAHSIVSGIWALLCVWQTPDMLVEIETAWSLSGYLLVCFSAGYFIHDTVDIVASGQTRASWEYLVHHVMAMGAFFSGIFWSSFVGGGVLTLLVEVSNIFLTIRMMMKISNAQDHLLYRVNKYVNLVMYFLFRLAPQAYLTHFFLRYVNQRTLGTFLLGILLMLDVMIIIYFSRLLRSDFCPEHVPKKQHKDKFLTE

[2] = substrate: CCCCCCCC/C=C\CCCCCCCC(=O)OC[C@@H](O)COP(=O)(O)OCCN; assay type: biochemical, Caenorhabditis elegans; settings: 100 uM myristoyl-CoA, pH 7.4, 30 C, 0.05% LMNG
[3] = substrate: CCCCCCCC/C=C\CCCCCCCC(=O)OC[C@@H](O)COP(=O)(O)OCCN; assay type: biochemical, Homo sapiens; settings: 100 uM oleoyl-CoA, pH 7.4, 30 C, 0.05% LMNG
[4] = substrate: CCCCCCCC/C=C\CCCCCCCC(=O)OC[C@@H](O)COP(=O)(O)OCCN; assay type: biochemical, Saccharomyces cerevisiae; settings: 100 uM palmitoleoyl-CoA, pH 7.4, 30 C, 0.05% LMNG

Q: `Cc1ncc(C[n+]2csc(CCO)c2C)c(N)n1` [thiamine] was tested. Which “LC-MS/MS initial-rate acyltransferase assay” value [1] did it give?
A: The value was “a linear increase in the initial reaction rate (Vo) even at millimolar thiamine levels”.

B1: FLD-1 (Caenorhabditis elegans) (protein)
chain: MRQLAELLTDLLGPVPTMFLWVIVSFAFFRALQFIVRWYLFGKWTWPNFNFFDIRNRIRRRRRGGQEAENTENPPENEAEAGEQVEQEPEPDSRDLSAIPPNKKWRISNECVSLFHSVISGLWAAYALLYYKQLVQDLVNYRCDVAINLVLMSAGYLFHDLVDLLVNEQSARIIELLFHHVVVLSAFAVTMFFNRFLGVVVFGLLMELNSIFLHSRSLLNLYGVDKKSPSFRIIALLNMVTLFAFRLCVSAYLVYFVVVSIPDLEWYVSIINGLVIASLASTNTVLTYRLLAADGLLGSRRTRRTPAATAETQVGDVESGPLRTQVEDEDHHTIGVQTIHGTTEDATQTV
notes: codon-optimised, C-terminal His tag cut off by Factor Xa; expressed in S. cerevisiae BJ2168; purified in LMNG
Q: Which results are given for B1?
A: Km [2]: 10.1 µM; kcat [2]: 0.608 s⁻¹

B2: TLCD1 (Homo sapiens) (protein)
chain: T1 sequence (Q96CP7 36-247)
notes: full length, C-terminal FLAG and Strep tags kept; expressed in Flp-In T-REx 293 cells; purified in LMNG; monomer in micelles
Q: Which Km [3] does the source give for B2 here?
A: The Km was 67.5 µM.

Q: What about the kcat [3] of the same molecule?
A: The kcat was 0.348 s⁻¹.

B3: YPR114w (Saccharomyces cerevisiae S288C) (protein)
chain: MDVLLSLPQPELFKTTVIPFLANRNIIKSEAILSNLHSIFYVAIFYHIWFLFGKWILFPHLVKWKLDYDQKHNVKKDEKTTSERQAQHYKKKYTSLINQSSVHLISLLQSIVVLYYSLKFLLDPKASAEPYQTSHSRVFTENRDTQVICIFAIGYFVWDIYISTMYSTFPFVVHGIISTVVFCIGLKPYIQYYAPVFLMFELSNPSLNFRWFGIKFLPQKSKFCSLLLLLNNLTLMVVFFAARIAWGWFQIGKLCYDFYQVRNEPGFLVFDTIVILAGNFVLDILNVIWFSTMVSVAAKVLKKGESVDKVTKNEQ
notes: full length, C-terminal His tag cut off by Factor Xa; expressed in S. cerevisiae BJ2168; purified in LMNG
Q: Which Km [4] does the source give for B3 here?
A: The Km was 16.7 µM.

Q: And the kcat [4]?
A: The kcat was 2.225 s⁻¹.
